US20030186281A1, “Modified tetracycline repressor protein compositions and methods of use” (priority 2001, published 2003)
Residue numbers refer to the chain shown, from its start. Numbers in names are those of the source.

B1: TetRrev29/24: revTetR(BD) E15V L17F N18Y I22M E23K (protein)
chain: MSRLDKSKVINSALVLFYEVGMKGLTTRKLAQKLGVEQPTLYWHVKNKRALLDALAVEILARHHDYSLPAAGESWQSFLRNNAMSFRRALLRYRDGAKVHLGTRPDEKQYDTVETQLRFMTENGFSLRDGLYAISAVSHFTLGAVLEQQEHTAALTDRPAAPDENLPPLLREALQIMDSDDGEQAFLHGLESLIRGFEVQLTALLQIV
modifications: Modified tetracycline repressor
notes: revTetR(BD) E15V L17F N18Y I22M E23K
B2: TetRrev29/52: revTetR(BD) L14V L17V N18K V20V G24G (protein)
chain: B1 chain with L14V, V15E, F17V, Y18K, M22I, K23E
modifications: Modified tetracycline repressor
notes: revTetR(BD) L14V L17V N18K V20V G24G
B3: TetRrev29/27: revTetR(BD) L14E V20G (protein)
chain: B1 chain with L14E, V15E, F17L, Y18N, V20G, M22I, K23E
modifications: Modified tetracycline repressor
notes: revTetR(BD) L14E V20G
B4: TetRrev29/35: revTetR(BD) L17S E23D (protein)
chain: B1 chain with L14E, V15E, F17S, Y18N, V20G, M22I, K23D
modifications: Modified tetracycline repressor
notes: revTetR(BD) L17S E23D
B5: TetRrevAtc4-1: revTetR(BD) A50S D53F A56G V57I H63Q (protein)
chain: B1 chain with V15E, F17L, Y18N, M22I, K23E, A50S, D53F, A56G, V57I, H63Q
modifications: Modified tetracycline repressor
notes: revTetR(BD) A50S D53F A56G V57I H63Q
B6: TetRrev29/42: revTetR(BD) E19D G96R (protein)
chain: B1 chain with V15D, F17L, Y18N, M22I, K23E, G96R
modifications: Modified tetracycline repressor
notes: revTetR(BD) E19D G96R
B7: TetRrev29/25: revTetR(BD) G21- I22- E23- G24S (protein)
chain: MSRLDKSKVINSALELLNEVSLTTRKLAQKLGVEQPTLYWHVKNKRALLDALAVEILARHHDYSLPAAGESWQSFLRNNAMSFRRALLRYRDGAKVHLGTRPDEKQYDTVETQLRFMTENGFSLRDGLYAISAVSHFTLGAVLEQQEHTAALTDRPAAPDENLPPLLREALQIMDSDDGEQAFLHGLESLIRGFEVQLTALLQIV
modifications: Modified tetracycline repressor
notes: revTetR(BD) G21- I22- E23- G24S

Each molecule was assayed on tet operator sequence (assay: β-galactosidase activity of a tetracycline-regulated promoter in transformed E. coli with revTetR, in the presence and absence of anhydrotetracycline (atc)). Conditions: RevTetR isolate cultured in the absence of anhydrotetracycline (ATC).
Type: cell-based, Escherichia coli
In short: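 TetR(BD) chimera mutants (TetR(B) residues 1–50, TetR(D) 51–208) expressed in E. coli regulating a tet operator-controlled lacZ. β-Galactosidase measured in Miller units at 28 °C and 37 °C with and without anhydrotetracycline; reported as percent of maximal expression without Tet repressor.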

Molecule	β-Galactosidase Activity, Cultured Without ATC
B1	85.5708
B2	48.4964
B3	82.7579
B4	58.0891
B5	100.076
B6	96.187
B7	92.9327

Same assay, conditions: RevTetR isolate cultured in the presence of anhydrotetracycline (ATC)

Molecule	β-Galactosidase Activity, Cultured With ATC
B1	7.9819
B2	3.3035
B3	9.453
B4	2.1051
B5	6.9011
B6	11.861
B7	3.112
